Results taken from IntAct's records for PubMed 23937259.

Target: pp1a_human PPP1CA (UniProt P62136)
Sequence (P62136 whole entry): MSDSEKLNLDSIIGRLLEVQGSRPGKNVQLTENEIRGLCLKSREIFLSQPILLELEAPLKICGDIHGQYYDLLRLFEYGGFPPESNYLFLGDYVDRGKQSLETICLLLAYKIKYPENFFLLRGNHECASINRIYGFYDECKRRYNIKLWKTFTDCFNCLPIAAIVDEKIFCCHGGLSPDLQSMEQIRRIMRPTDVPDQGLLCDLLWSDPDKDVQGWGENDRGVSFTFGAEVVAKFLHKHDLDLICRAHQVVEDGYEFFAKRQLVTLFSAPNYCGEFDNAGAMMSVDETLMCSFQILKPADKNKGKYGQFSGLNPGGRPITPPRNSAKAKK

effect of a mutation on the interaction | Substance
increasing interaction strength | Leucine-rich repeat serine/threonine-protein kinase 2 (Homo sapiens), Q5S007 N1437H
increasing interaction strength | Leucine-rich repeat serine/threonine-protein kinase 2 (Homo sapiens), Q5S007 R1441G
increasing interaction strength | Leucine-rich repeat serine/threonine-protein kinase 2 (Homo sapiens), Q5S007 S910A;S935A;S955A;S973A
increasing interaction strength | Leucine-rich repeat serine/threonine-protein kinase 2 (Homo sapiens), Q5S007 Y1699C
